Tests used:
[1] = biological target: Coatomer subunit delta (Mus musculus) (UniProt Q5XJY5); assay: anti-HA co-IP from muscle, MS; CTRL 0
[2] = biological target: Probable ubiquitin carboxyl-terminal hydrolase FAF-X (Mus musculus) (UniProt P70398); assay: anti-HA co-IP from muscle, MS; CTRL 0
[3] = biological target: Transmembrane protein 201 (Mus musculus) (UniProt A2A8U2); assay: anti-HA co-IP from muscle, MS; CTRL 0
[4] = biological target: Alpha-1-syntrophin (Mus musculus) (UniProt Q61234); assay: anti-HA co-IP from muscle, MS; CTRL 1
[5] = biological target: Alpha-sarcoglycan (Mus musculus) (UniProt P82350); assay: anti-HA co-IP from muscle, MS; CTRL 1
[6] = biological target: Caveolae-associated protein 2 (Mus musculus) (UniProt Q63918); assay: anti-HA co-IP from muscle, MS; CTRL 1
[7] = biological target: Caveolae-associated protein 3 (Mus musculus) (UniProt Q91VJ2); assay: anti-HA co-IP from muscle, MS; CTRL 1
[8] = biological target: Caveolin-1 (Mus musculus) (UniProt P49817); assay: anti-HA co-IP from muscle, MS; CTRL 1
Caveolin-1 (Mus musculus), sequence (P49817 2-178 limits assumed): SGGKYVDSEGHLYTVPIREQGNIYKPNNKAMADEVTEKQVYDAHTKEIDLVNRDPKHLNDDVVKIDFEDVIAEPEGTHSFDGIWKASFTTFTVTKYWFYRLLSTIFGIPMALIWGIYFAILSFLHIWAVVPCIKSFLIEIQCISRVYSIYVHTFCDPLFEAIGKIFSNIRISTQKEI

[9] = biological target: Collagen alpha-2(IV) chain (Mus musculus) (UniProt P08122); assay: anti-HA co-IP from muscle, MS; CTRL 1
Collagen alpha-2(IV) chain (Mus musculus), sequence (P08122 26-1707 limits assumed): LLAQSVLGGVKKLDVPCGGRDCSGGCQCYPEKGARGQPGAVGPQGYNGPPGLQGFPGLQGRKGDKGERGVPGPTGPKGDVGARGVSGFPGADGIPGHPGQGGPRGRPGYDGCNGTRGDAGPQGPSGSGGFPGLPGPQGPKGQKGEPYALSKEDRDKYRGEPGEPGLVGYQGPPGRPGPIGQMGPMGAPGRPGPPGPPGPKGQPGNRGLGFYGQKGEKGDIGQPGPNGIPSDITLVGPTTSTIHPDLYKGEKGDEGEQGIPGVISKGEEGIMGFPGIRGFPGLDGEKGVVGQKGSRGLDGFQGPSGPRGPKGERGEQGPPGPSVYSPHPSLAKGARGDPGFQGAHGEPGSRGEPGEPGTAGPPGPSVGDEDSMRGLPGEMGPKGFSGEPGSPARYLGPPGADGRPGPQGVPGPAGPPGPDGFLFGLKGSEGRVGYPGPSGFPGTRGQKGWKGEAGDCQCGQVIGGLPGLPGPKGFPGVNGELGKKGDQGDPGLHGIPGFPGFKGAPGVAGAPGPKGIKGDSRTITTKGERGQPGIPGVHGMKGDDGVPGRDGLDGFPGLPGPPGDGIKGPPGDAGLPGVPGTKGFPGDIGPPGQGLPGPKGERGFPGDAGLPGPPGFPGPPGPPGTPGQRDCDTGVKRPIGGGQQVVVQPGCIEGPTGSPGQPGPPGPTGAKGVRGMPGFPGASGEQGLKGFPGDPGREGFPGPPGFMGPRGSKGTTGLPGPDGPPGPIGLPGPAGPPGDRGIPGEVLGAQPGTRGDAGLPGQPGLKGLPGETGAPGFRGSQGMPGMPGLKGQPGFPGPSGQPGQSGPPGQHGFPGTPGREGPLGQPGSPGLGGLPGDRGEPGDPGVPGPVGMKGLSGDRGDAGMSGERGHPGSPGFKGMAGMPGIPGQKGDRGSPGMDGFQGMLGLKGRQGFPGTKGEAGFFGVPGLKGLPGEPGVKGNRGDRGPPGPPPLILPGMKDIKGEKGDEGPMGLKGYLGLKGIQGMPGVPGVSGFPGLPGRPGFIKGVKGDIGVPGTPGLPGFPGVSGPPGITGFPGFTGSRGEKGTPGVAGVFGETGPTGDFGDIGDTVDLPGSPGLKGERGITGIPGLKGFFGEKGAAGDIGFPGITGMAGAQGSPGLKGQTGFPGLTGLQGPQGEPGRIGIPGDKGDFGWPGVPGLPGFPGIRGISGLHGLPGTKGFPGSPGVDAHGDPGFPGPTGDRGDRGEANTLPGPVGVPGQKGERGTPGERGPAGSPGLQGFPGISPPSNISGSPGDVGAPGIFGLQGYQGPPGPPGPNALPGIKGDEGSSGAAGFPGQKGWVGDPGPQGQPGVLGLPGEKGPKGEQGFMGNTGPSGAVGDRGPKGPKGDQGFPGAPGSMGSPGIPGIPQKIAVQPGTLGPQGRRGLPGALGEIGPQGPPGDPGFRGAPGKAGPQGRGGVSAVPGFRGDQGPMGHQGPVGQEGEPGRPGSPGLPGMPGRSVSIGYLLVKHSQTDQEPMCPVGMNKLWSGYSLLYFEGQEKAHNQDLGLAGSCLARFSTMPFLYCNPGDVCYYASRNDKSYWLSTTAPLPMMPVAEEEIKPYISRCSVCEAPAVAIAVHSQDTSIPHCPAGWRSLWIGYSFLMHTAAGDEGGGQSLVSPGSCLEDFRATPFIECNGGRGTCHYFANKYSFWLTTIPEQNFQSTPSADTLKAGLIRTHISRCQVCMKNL

[10] = biological target: Cullin-associated NEDD8-dissociated protein 2 (Mus musculus) (UniProt Q6ZQ73); assay: anti-HA co-IP from muscle, MS; CTRL 1
[11] = biological target: Glypican-1 (Mus musculus) (UniProt Q9QZF2); assay: anti-HA co-IP from muscle, MS; CTRL 1
[12] = biological target: Protein-cysteine N-palmitoyltransferase HHAT-like protein (Mus musculus) (UniProt Q9D1G3); assay: anti-HA co-IP from muscle, MS; CTRL 1
[13] = biological target: Ribosomal protein S6 kinase alpha-3 (Mus musculus) (UniProt P18654); assay: anti-HA co-IP from muscle, MS; CTRL 1
[14] = biological target: Unconventional myosin-Ic (Mus musculus) (UniProt Q9WTI7); assay: anti-HA co-IP from muscle, MS; CTRL 1
[15] = biological target: Vinculin (Mus musculus) (UniProt Q64727); assay: anti-HA co-IP from muscle, MS; CTRL 1
Vinculin (Mus musculus), sequence (Q64727 whole entry): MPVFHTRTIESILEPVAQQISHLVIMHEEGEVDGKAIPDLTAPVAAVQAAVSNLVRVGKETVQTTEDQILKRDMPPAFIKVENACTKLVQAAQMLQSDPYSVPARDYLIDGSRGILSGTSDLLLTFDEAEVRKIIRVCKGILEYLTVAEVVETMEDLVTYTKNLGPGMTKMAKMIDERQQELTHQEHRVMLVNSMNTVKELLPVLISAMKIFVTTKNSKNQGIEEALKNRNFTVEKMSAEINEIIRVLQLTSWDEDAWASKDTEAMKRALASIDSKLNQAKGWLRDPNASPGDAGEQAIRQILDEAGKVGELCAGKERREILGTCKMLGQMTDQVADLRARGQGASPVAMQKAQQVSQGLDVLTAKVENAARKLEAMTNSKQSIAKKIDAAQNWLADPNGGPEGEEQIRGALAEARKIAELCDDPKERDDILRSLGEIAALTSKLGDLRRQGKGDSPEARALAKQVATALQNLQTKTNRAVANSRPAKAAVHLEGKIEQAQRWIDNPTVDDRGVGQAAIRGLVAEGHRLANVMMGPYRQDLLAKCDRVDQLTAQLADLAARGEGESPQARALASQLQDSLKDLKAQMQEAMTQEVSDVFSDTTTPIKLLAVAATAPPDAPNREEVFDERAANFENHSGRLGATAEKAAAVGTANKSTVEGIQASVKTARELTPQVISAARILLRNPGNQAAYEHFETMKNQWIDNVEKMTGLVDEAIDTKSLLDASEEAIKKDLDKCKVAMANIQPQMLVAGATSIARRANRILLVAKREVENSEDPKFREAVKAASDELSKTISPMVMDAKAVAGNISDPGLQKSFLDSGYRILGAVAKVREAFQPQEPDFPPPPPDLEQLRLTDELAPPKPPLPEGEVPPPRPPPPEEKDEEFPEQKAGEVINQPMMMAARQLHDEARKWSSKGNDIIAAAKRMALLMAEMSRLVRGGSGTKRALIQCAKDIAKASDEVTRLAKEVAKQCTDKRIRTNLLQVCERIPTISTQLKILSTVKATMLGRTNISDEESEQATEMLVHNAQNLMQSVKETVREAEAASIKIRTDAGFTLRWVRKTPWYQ

[16] = biological target: Calcium/calmodulin-dependent protein kinase type II subunit alpha (Mus musculus) (UniProt P11798); assay: anti-HA co-IP from muscle, MS; CTRL 2
[17] = biological target: Caveolae-associated protein 1 (Mus musculus) (UniProt O54724); assay: anti-HA co-IP from muscle, MS; CTRL 2
[18] = biological target: PDZ and LIM domain protein 5 (Mus musculus) (UniProt Q8CI51); assay: anti-HA co-IP from muscle, MS; CTRL 2
PDZ and LIM domain protein 5 (Mus musculus), sequence (Q8CI51 2-591 limits assumed): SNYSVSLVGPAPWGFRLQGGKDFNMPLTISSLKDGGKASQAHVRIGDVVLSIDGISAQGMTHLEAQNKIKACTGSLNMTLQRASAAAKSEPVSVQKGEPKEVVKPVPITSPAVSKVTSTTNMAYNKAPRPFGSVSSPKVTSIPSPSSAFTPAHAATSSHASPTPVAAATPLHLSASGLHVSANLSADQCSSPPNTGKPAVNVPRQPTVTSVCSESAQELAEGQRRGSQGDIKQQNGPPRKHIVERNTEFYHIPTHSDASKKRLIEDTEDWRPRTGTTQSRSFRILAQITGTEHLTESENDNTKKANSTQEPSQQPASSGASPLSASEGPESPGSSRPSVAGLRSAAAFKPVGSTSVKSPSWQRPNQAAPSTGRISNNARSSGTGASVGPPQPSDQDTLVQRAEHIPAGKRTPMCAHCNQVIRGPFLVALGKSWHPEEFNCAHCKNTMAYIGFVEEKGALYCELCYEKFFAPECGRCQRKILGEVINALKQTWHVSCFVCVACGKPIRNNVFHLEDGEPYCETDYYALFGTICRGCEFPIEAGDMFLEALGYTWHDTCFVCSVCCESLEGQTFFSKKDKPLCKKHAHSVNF

[19] = biological target: Phosphorylase b kinase gamma catalytic chain, skeletal muscle/heart isoform (Mus musculus) (UniProt P07934); assay: anti-HA co-IP from muscle, MS; CTRL 2
[20] = biological target: Poly(rC)-binding protein 2 (Mus musculus) (UniProt Q61990); assay: anti-HA co-IP from muscle, MS; CTRL 2
Poly(rC)-binding protein 2 (Mus musculus), sequence (Q61990 whole entry): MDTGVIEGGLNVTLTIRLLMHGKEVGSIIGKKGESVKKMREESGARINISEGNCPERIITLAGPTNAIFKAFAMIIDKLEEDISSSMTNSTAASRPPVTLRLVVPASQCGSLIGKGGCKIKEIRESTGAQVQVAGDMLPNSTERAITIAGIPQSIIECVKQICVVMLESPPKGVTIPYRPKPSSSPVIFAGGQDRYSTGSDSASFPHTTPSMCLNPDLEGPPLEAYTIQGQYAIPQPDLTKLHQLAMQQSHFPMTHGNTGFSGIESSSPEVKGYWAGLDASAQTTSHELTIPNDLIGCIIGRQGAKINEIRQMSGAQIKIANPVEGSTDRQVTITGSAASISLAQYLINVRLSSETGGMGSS

[21] = biological target: Serine/arginine repetitive matrix protein 2 (Mus musculus) (UniProt Q8BTI8); assay: anti-HA co-IP from muscle, MS; CTRL 2
[22] = biological target: Spectrin beta chain, erythrocytic (Mus musculus) (UniProt P15508); assay: anti-HA co-IP from muscle, MS; CTRL 2
[23] = biological target: Succinate--CoA ligase [ADP-forming] subunit beta, mitochondrial (Mus musculus) (UniProt Q9Z2I9); assay: anti-HA co-IP from muscle, MS; CTRL 2
[24] = biological target: T-complex protein 1 subunit beta (Mus musculus) (UniProt P80314); assay: anti-HA co-IP from muscle, MS; CTRL 2
T-complex protein 1 subunit beta (Mus musculus), sequence (P80314 2-535 limits assumed, one chain of several): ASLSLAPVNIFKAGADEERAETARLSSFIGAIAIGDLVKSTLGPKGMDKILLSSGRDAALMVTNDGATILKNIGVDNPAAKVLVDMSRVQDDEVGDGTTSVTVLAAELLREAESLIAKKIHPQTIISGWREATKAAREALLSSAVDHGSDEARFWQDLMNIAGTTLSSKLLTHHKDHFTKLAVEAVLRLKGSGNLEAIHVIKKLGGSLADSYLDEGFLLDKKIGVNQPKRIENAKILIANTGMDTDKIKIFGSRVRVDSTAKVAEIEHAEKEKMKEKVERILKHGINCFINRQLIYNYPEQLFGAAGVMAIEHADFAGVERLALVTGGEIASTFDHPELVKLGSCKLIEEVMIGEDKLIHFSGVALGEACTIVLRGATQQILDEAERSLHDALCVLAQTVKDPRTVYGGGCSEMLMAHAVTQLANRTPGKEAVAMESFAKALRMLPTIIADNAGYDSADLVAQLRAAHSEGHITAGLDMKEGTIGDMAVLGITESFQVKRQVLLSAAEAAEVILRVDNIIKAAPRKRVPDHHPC

[25] = biological target: Trimeric intracellular cation channel type A (Mus musculus) (UniProt Q3TMP8); assay: anti-HA co-IP from muscle, MS; CTRL 2
[26] = biological target: Tripartite motif-containing protein 72 (Mus musculus) (UniProt Q1XH17); assay: anti-HA co-IP from muscle, MS; CTRL 2
[27] = biological target: Very-long-chain enoyl-CoA reductase (Mus musculus) (UniProt Q9CY27); assay: anti-HA co-IP from muscle, MS; CTRL 2
[28] = biological target: Voltage-dependent L-type calcium channel subunit beta-1 (Mus musculus) (UniProt Q8R3Z5); assay: anti-HA co-IP from muscle, MS; CTRL 2
[29] = biological target: 3-ketoacyl-CoA thiolase, mitochondrial (Mus musculus) (UniProt Q8BWT1); assay: anti-HA co-IP from muscle, MS; CTRL 3
[30] = biological target: Cytoplasmic dynein 1 heavy chain 1 (Mus musculus) (UniProt Q9JHU4); assay: anti-HA co-IP from muscle, MS; CTRL 3
[31] = biological target: Myosin light chain kinase 2, skeletal/cardiac muscle (Mus musculus) (UniProt Q8VCR8); assay: anti-HA co-IP from muscle, MS; CTRL 3
Myosin light chain kinase 2, skeletal/cardiac muscle (Mus musculus), sequence (Q8VCR8 whole entry): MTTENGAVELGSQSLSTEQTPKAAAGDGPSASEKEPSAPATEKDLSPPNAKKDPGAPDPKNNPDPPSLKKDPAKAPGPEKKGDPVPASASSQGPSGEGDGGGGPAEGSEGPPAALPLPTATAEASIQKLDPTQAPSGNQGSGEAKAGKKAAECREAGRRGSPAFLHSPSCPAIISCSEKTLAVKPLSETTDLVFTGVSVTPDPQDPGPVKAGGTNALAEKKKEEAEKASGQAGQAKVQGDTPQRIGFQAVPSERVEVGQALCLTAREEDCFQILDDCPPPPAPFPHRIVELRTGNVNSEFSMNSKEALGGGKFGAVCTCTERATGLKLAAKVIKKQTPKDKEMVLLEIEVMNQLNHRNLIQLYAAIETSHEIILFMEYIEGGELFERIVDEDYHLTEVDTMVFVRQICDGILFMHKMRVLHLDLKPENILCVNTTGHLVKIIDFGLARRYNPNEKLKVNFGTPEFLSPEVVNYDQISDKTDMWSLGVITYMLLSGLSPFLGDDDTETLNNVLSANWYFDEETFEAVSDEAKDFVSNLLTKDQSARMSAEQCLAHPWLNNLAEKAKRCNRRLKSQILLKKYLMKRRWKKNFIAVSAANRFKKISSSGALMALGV

[32] = biological target: Nidogen-2 (Mus musculus) (UniProt O88322); assay: anti-HA co-IP from muscle, MS; CTRL 3
[33] = biological target: Perilipin-4 (Mus musculus) (UniProt O88492); assay: anti-HA co-IP from muscle, MS; CTRL 3
[34] = biological target: Transcription elongation factor A protein 3 (Mus musculus) (UniProt P23881); assay: anti-HA co-IP from muscle, MS; CTRL 3
[35] = biological target: Carnitine O-palmitoyltransferase 1, muscle isoform (Mus musculus) (UniProt Q924X2); assay: anti-HA co-IP from muscle, MS; CTRL 4
[36] = biological target: MICOS complex subunit Mic60 (Mus musculus) (UniProt Q8CAQ8); assay: anti-HA co-IP from muscle, MS; CTRL 4
[37] = biological target: Phosphorylase b kinase regulatory subunit beta (Mus musculus) (UniProt Q7TSH2); assay: anti-HA co-IP from muscle, MS; CTRL 4
[38] = biological target: Trifunctional enzyme subunit beta, mitochondrial (Mus musculus) (UniProt Q99JY0); assay: anti-HA co-IP from muscle, MS; CTRL 4

human BVES fused with 3xHA tag (from UniProt Q8NE79 1-360)
AAV9-BVES-HA (IP-MS count) [1]: 2
AAV9-BVES-HA (IP-MS count) [2]: 3
AAV9-BVES-HA (IP-MS count) [3]: 2
AAV9-BVES-HA (IP-MS count) [4]: 11
AAV9-BVES-HA (IP-MS count) [5]: 5
AAV9-BVES-HA (IP-MS count) [6]: 12
AAV9-BVES-HA (IP-MS count) [7]: 11
AAV9-BVES-HA (IP-MS count) [8]: 8
AAV9-BVES-HA (IP-MS count) [9]: 5
AAV9-BVES-HA (IP-MS count) [10]: 16
AAV9-BVES-HA (IP-MS count) [11]: 11
AAV9-BVES-HA (IP-MS count) [12]: 5
AAV9-BVES-HA (IP-MS count) [13]: 20
AAV9-BVES-HA (IP-MS count) [14]: 7
AAV9-BVES-HA (IP-MS count) [15]: 5
AAV9-BVES-HA (IP-MS count) [16]: 11
AAV9-BVES-HA (IP-MS count) [17]: 19
AAV9-BVES-HA (IP-MS count) [18]: 7
AAV9-BVES-HA (IP-MS count) [19]: 6
AAV9-BVES-HA (IP-MS count) [20]: 6
AAV9-BVES-HA (IP-MS count) [21]: 11
AAV9-BVES-HA (IP-MS count) [22]: 41
AAV9-BVES-HA (IP-MS count) [23]: 8
AAV9-BVES-HA (IP-MS count) [24]: 6
AAV9-BVES-HA (IP-MS count) [25]: 7
AAV9-BVES-HA (IP-MS count) [26]: 6
AAV9-BVES-HA (IP-MS count) [27]: 9
AAV9-BVES-HA (IP-MS count) [28]: 6
AAV9-BVES-HA (IP-MS count) [29]: 9
AAV9-BVES-HA (IP-MS count) [30]: 12
AAV9-BVES-HA (IP-MS count) [31]: 9
AAV9-BVES-HA (IP-MS count) [32]: 12
AAV9-BVES-HA (IP-MS count) [33]: 11
AAV9-BVES-HA (IP-MS count) [34]: 12
AAV9-BVES-HA (IP-MS count) [35]: 24
AAV9-BVES-HA (IP-MS count) [36]: 15
AAV9-BVES-HA (IP-MS count) [37]: 18
AAV9-BVES-HA (IP-MS count) [38]: 13

— US20250340902A1, “GENE THERAPY FOR BVES-RELATED DISORDERS” (OHIO STATE INNOVATION FOUNDATION, priority 2022, published 2025)
